Assay [1] addresses Tie2-Fc (Beijing Sino Biological, Catalog No. 10700-H03H) (UniProt Q02763). The experiment in a line: ELISA: biotin-Ang2 (0.2 ug/mL) on coated Tie2-Fc, no antibody (blank of the blocking assay). For orientation: In an ELISA, binding on a coated surface is turned into a signal by an enzyme label.
For another assay, the target named is T1, human VEGF165 (human, UniProt P15692-4 27-191).
T1 construct: all are put under this molecule; also called VEGF A; VEGFA
In words: BLI (ForteBio), bivalent binding; * exceeds ForteBio detection limit. In general terms: Biolayer interferometry detects binding as a change in optical thickness at a sensor tip.

Another assay deals with T2, human Ang2 (human, UniProt O15123 19-496, limits assumed).
T2 construct: Bought proteins; also called hAng2-biotin; Ang2-Bio (Sino)
T2 sequence (looked up): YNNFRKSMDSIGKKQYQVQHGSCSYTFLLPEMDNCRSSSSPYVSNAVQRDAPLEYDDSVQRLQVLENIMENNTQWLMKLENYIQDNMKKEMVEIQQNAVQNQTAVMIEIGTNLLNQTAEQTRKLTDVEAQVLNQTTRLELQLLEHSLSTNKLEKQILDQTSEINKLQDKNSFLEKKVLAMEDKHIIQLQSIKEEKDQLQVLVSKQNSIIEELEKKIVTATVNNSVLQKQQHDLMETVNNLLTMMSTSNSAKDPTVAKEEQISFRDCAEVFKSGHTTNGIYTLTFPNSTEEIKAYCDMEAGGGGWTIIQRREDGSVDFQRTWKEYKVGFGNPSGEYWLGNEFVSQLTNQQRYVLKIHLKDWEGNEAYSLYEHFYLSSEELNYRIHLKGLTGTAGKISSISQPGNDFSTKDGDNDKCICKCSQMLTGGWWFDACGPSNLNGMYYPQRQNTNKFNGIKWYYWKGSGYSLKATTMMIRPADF
The experiment in a line: blocking ELISA: biotinylated hAng2 on coated hTie2, antibody titrated from 300 nM.

Here are results for three molecules from patent EP4628097A1 (Innovent Biologics (Suzhou) Co., Ltd., dated 2025).

Sequence of Tie2-Fc (Beijing Sino Biological, Catalog No. 10700-H03H) (Q02763 23-745 limits assumed): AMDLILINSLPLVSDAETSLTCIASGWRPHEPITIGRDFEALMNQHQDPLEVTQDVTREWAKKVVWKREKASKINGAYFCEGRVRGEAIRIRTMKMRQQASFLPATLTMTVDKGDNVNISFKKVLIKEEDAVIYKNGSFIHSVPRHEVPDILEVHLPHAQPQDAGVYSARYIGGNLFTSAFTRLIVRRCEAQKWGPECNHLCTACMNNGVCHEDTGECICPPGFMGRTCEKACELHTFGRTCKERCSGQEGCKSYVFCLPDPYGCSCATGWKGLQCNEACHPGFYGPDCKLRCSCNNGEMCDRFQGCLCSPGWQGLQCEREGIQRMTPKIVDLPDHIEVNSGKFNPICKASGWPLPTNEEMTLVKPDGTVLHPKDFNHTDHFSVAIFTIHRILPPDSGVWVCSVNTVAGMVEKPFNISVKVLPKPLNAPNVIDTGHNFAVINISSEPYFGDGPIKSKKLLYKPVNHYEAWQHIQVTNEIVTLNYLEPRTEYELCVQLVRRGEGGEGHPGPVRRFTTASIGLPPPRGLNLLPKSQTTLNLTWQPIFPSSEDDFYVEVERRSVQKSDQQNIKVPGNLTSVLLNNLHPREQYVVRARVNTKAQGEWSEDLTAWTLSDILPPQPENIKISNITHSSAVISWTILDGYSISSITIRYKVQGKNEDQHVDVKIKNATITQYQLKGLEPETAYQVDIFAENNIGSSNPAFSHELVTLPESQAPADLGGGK
T1 sequence (P15692 other isoform, or with tags, fused parts or gaps limits assumed): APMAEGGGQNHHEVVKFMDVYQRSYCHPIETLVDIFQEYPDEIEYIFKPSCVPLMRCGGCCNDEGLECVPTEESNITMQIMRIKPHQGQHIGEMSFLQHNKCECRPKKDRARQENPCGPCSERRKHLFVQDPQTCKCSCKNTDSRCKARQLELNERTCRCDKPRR

In turn, “human Ang2 (from UniProt O15123 19-496) (ligand)” displayed an OD450nm in assay [1] of 3.45 OD450nm.

B1: LA46E11 (VHH)
VHH: QVQLEESGGGLVQPGGSLRLSCVASGSIFSINAMGWHRQAPGSQRELVATMIGGSSTFYADSVNGRFTISRDNAKNTVYLQMNSLKLEDTAVYYCYADVTGRSGTSIWNKRDDYWGQGTLVTVSS
notes: Alpaca immune-library VHH; also called LA46E11 (VEGFA VHH); anti-VEGF A VHH antibody
The term koff denotes a measure of how fast the partners let go of each other. Read a high koff as a short-lived complex. With B1, in the assay with human VEGF165, the koff is no more than 0.0002 s⁻¹.

B2: IEX04-008 (bispecific antibody)
chain: EVQLLESGGGLVQPGGSLRLSCAASGSIFSINAMGWHRQAPGKQRELVATMIGGSSTFYAESVQGRFTISRDNSKNTVYLQMNSLRAEDTAVYYCYADVTGRSGTSIWNKRDDYWGQGTQVTVSSGGGGSGGGGSEVQLLESGGGLVQPGGSLRLSCAASGSIFSINAMGWHRQAPGKQRELVATMIGGSSTFYAESVQGRFTISRDNSKNTVYLQMNSLRAEDTAVYYCYADVTGRSGTSIWNKRDDYWGQGTQVTVSSGGGGSGGGGSEVQLLESGGGLVQPGGSLRLSCAASGFALDYYAIGWFRQAPGKGLEGVSCISSGEGSTYYADSVKGRFTISRDNSKNTVYLQMNSLRAEDTAVYYCATDSRGDDVACEGLRRNEYDYWGQGTLVTVSS
notes: expressed in 293 cells; also called LA46E11.8 (VHH) + linker + LA46E11.8 (VHH) + LA24C11.10
For B2, the binding result with human Ang2 is “binds”.
